In patent publication US20140087995A1 (published 2014):
Each block holds one binder with its values, some of them ahead of it. Numbered stars: 1 amine (or outer) side, 2 acyl side, 3 side chain; on linkers, the order of the positions; unused ones are H or OH. Bridge positions count the residues as written; N and C are the ends. Side chains are listed from the residue outwards. Ends that are not written are not given here. * marks the point of attachment. C20 diacid = O=C(O)CCCCCCCCCCCCCCCCCCC(=O)*; γGlu = O=C(O)[C@H](CCC(=O)[*:2])N[*:1]; AEEA = NCCOCCOCC(=O)O

Key:
[1] = biological target: T1, human calcitonin receptor (human, UniProt P30988 25-474); experiment: cell-based or functional assay
T1 sequence (looked up): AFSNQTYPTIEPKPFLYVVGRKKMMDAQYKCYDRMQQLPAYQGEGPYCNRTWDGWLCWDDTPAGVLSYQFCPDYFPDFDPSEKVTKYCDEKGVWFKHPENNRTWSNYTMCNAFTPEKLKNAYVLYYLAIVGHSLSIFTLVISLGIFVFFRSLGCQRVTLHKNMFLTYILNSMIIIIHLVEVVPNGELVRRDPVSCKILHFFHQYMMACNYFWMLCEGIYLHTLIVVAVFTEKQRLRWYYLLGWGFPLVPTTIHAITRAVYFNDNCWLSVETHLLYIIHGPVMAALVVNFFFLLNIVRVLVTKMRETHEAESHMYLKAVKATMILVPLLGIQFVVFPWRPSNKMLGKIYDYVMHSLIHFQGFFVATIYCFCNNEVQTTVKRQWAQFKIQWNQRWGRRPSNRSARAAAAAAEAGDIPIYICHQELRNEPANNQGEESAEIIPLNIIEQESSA

[2] = biological target: T2, human amylin receptor (amylin 3(a) receptor: human calcitonin receptor with RAMP-3) (human, UniProt P30988 25-474; O60896 24-148, limits assumed); experiment: SPA competition binding on membranes of BHK cells with human calcitonin receptor + RAMP-3; displacement of 125I-rat amylin (Assay V)
T2 construct: whole, on cells; Whole cells in the luciferase assay (Assay II a); also called hAmylin-R; hAmylinR
T2 sequence (looked up) 1: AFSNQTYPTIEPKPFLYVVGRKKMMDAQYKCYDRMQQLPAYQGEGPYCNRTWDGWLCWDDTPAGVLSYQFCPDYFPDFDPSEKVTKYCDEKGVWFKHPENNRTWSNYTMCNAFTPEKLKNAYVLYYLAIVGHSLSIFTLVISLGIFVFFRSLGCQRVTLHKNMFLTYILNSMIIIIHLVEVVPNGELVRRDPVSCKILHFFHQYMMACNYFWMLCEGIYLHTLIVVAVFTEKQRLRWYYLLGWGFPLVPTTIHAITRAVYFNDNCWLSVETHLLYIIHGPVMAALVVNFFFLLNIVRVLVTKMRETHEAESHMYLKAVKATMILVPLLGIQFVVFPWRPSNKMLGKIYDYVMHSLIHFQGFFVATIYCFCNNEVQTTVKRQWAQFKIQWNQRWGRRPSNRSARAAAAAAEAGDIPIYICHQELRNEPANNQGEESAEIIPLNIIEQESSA
T2 sequence (looked up) 2: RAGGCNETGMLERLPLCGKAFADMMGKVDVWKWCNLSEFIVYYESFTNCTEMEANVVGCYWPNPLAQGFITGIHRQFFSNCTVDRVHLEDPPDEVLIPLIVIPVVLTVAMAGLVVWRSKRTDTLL
Procedure: The binding assay was performed using scintillation proximity assay (SPA) beads (RPNQ0001) from PerkinElmer and cell membranes from the Amylin 3(a)/CRE-luc cells (as described in Assay (II)) were used. Membranes were prepared in the following way; the cells were rinsed with PBS and incubated with Versene for approximately 5 min before harvesting. The cells were flushed with PBS and the cell-suspension was centrifuged for 5 min at 1000 rpm. Cells were homogenized (ultrathurrax) in a buffer containing 20 mM Na-HEPES and 10 mM EDTA (pH 7.4) and centrifuged at 20.000 rpm for 15 min. The resulting pellet was resuspended, homogenized and centrifuged (20.000 rpm, 15 min) in a buffer containing 20 mM Na-HEPES and 0.1 mM EDTA (pH 7.4, buffer 2). The resulting pellet was resuspended in buffer 2 and protein concentration was measured (BCA protein Assay, Pierce). The homogenate was kept cold during the whole procedure. The membranes were kept at −80° C. until use. The assay was performed in a 384 well Optiplate (PerkinElmer) in a total volume of 40 ul. Membranes were mixed with SPA beads. Final concentration of membranes 35 ng/μL final and SPA beads was 0.05 mg/well. Test-compounds were dissolved in DMSO and further diluted in assay buffer (50 mM Hepes, pH 7.4, 1 mM CaCl2, 5 mM MgCl₂, 0.1% OA and 0.02% Tween20). […] The final mixture was incubated with shaking at 400 rpm for 120 min at 25° C. prior to centrifugation (1500 rpm, 10 min). Samples were analyzed on TopCounter™ (Packard). The IC₅₀ was calculated using (one site binding competition analysis) GraphPad Prism5 as a measure of receptor affinity.

[3] = biological target: T3, human calcitonin receptor (human, UniProt P30988 25-474); experiment: ratio of IC50 at hCTR over IC50 at hAmylin-R (SPA competition assays)
T3 construct: whole, on cells; Membranes of BHK cells stably transfected with the human calcitonin receptor (Assay VII); also called hCTR; hCT
T3 sequence (looked up): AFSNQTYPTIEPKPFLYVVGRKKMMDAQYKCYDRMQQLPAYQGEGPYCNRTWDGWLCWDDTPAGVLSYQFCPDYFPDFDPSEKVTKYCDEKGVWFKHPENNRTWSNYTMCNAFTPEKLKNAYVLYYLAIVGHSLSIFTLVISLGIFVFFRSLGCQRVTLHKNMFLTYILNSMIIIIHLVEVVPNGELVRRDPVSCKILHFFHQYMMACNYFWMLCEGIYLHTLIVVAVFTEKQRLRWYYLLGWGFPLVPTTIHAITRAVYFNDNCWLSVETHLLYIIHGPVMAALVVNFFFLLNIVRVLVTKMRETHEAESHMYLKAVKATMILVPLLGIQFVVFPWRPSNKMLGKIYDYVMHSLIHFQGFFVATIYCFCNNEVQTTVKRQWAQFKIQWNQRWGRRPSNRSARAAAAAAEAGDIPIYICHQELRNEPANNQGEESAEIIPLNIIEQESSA
Summary of the method: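 Competition binding by SPA with cell membranes (35 ng/μL) and SPA beads in 50 mM Hepes pH 7.4 with 1 mM CaCl2, 5 mM MgCl2, 0.1% OA and 0.02% Tween20. Incubated 120 min at 25 °C with shaking, then counted.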

[4] = biological target: T3, human calcitonin receptor; experiment: SPA competition against 125I-calcitonin, membranes of BHK cells with human calcitonin receptor (Assay VII)
Summary of the method: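 BHK hCTR membranes 35 ng/μL + SPA beads 0.05 mg/well; buffer 50 mM Hepes pH 7.4, 1 mM CaCl2, 5 mM MgCl₂, 0.1% OA, 0.02% Tween20. 120 min, 25° C., shaking. Scintillation count; IC50 by one-site binding competition.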

hCTR funct. EC50 (pM) [1]: 11800 pM
B1: N^ε1-[2-[2-[2-[[2-[2-[2-[[(4S)-4-carboxy-4-(19-carboxynonadecanoylamino)butanoyl]amino]ethoxy]ethoxy]acetyl]amino]ethoxy]ethoxy]acetyl]-[Arg17,Pro21,Pro27,His34 … (peptide)
peptide: K([AEEA-AEEA-γGlu-C20 diacid])CNTATCATQRLANFLRHSSPNFGAIPSSTNVGHNTY-NH2
modifications: disulfide 2-7; N-terminus assumed
SMILES: CC[C@H](C)[C@H](NC(=O)[C@H](C)NC(=O)CNC(=O)[C@H](Cc1ccccc1)NC(=O)[C@H](CC(N)=O)NC(=O)[C@@H]1CCCN1C(=O)[C@H](CO)NC(=O)[C@H](CO)NC(=O)[C@H](Cc1c[nH]cn1)NC(=O)[C@H](CCCNC(=N)N)NC(=O)[C@H](CC(C)C)NC(=O)[C@H](Cc1ccccc1)NC(=O)[C@H](CC(N)=O)NC(=O)[C@H](C)NC(=O)[C@H](CC(C)C)NC(=O)[C@H](CCCNC(=N)N)NC(=O)[C@H](CCC(N)=O)NC(=O)[C@@H](NC(=O)[C@H](C)NC(=O)[C@@H]1CSSC[C@H](NC(=O)[C@@H](N)CCCCNC(=O)COCCOCCNC(=O)COCCOCCNC(=O)CC[C@H](NC(=O)CCCCCCCCCCCCCCCCCCC(=O)O)C(=O)O)C(=O)N[C@@H](CC(N)=O)C(=O)N[C@@H]([C@@H](C)O)C(=O)N[C@@H](C)C(=O)N[C@@H]([C@@H](C)O)C(=O)N1)[C@@H](C)O)C(=O)N1CCC[C@H]1C(=O)N[C@@H](CO)C(=O)N[C@@H](CO)C(=O)N[C@H](C(=O)N[C@@H](CC(N)=O)C(=O)N[C@H](C(=O)NCC(=O)N[C@@H](Cc1c[nH]cn1)C(=O)N[C@@H](CC(N)=O)C(=O)N[C@H](C(=O)N[C@@H](Cc1ccc(O)cc1)C(N)=O)[C@@H](C)O)C(C)C)[C@@H](C)O
notes: synthetic peptide amide; also called compound 97

IC50 [2]: 0.249 nM
B2: N^ε1-[2-[2-[2-[[(4S)-4-carboxy-4-(19-carboxynonadecanoylamino)butanoyl]amino]ethoxy]ethoxy]acetyl]-[Arg17,Pro21,Pro27,Arg35]-h-amylin (peptide)
peptide: K([AEEA-γGlu-C20 diacid])CNTATCATQRLANFLRHSSPNFGAIPSSTNVGSRTY-NH2
modifications: disulfide 2-7; N-terminus assumed
SMILES: CC[C@H](C)[C@H](NC(=O)[C@H](C)NC(=O)CNC(=O)[C@H](Cc1ccccc1)NC(=O)[C@H](CC(N)=O)NC(=O)[C@@H]1CCCN1C(=O)[C@H](CO)NC(=O)[C@H](CO)NC(=O)[C@H](Cc1c[nH]cn1)NC(=O)[C@H](CCCNC(=N)N)NC(=O)[C@H](CC(C)C)NC(=O)[C@H](Cc1ccccc1)NC(=O)[C@H](CC(N)=O)NC(=O)[C@H](C)NC(=O)[C@H](CC(C)C)NC(=O)[C@H](CCCNC(=N)N)NC(=O)[C@H](CCC(N)=O)NC(=O)[C@@H](NC(=O)[C@H](C)NC(=O)[C@@H]1CSSC[C@H](NC(=O)[C@@H](N)CCCCNC(=O)COCCOCCNC(=O)CC[C@H](NC(=O)CCCCCCCCCCCCCCCCCCC(=O)O)C(=O)O)C(=O)N[C@@H](CC(N)=O)C(=O)N[C@@H]([C@@H](C)O)C(=O)N[C@@H](C)C(=O)N[C@@H]([C@@H](C)O)C(=O)N1)[C@@H](C)O)C(=O)N1CCC[C@H]1C(=O)N[C@@H](CO)C(=O)N[C@@H](CO)C(=O)N[C@H](C(=O)N[C@@H](CC(N)=O)C(=O)N[C@H](C(=O)NCC(=O)N[C@@H](CO)C(=O)N[C@@H](CCCNC(=N)N)C(=O)N[C@H](C(=O)N[C@@H](Cc1ccc(O)cc1)C(N)=O)[C@@H](C)O)C(C)C)[C@@H](C)O
notes: also called compound 38

Ratio hCT/hAmylin binding [3]: 13.3 | IC50 [4]: 1.86 nM
B3: N^ε1-[(4S)-4-carboxy-4-(19-carboxynonadecanoylamino)butanoyl]-[Glu14,Arg17,Pro21,Pro27,Pro34,Glu35]-h-amylin (peptide)
peptide: K([γGlu-C20 diacid])CNTATCATQRLAEFLRHSSPNFGAIPSSTNVGPETY-NH2
modifications: disulfide 2-7; N-terminus assumed
SMILES: CC[C@H](C)[C@H](NC(=O)[C@H](C)NC(=O)CNC(=O)[C@H](Cc1ccccc1)NC(=O)[C@H](CC(N)=O)NC(=O)[C@@H]1CCCN1C(=O)[C@H](CO)NC(=O)[C@H](CO)NC(=O)[C@H](Cc1c[nH]cn1)NC(=O)[C@H](CCCNC(=N)N)NC(=O)[C@H](CC(C)C)NC(=O)[C@H](Cc1ccccc1)NC(=O)[C@H](CCC(=O)O)NC(=O)[C@H](C)NC(=O)[C@H](CC(C)C)NC(=O)[C@H](CCCNC(=N)N)NC(=O)[C@H](CCC(N)=O)NC(=O)[C@@H](NC(=O)[C@H](C)NC(=O)[C@@H]1CSSC[C@H](NC(=O)[C@@H](N)CCCCNC(=O)CC[C@H](NC(=O)CCCCCCCCCCCCCCCCCCC(=O)O)C(=O)O)C(=O)N[C@@H](CC(N)=O)C(=O)N[C@@H]([C@@H](C)O)C(=O)N[C@@H](C)C(=O)N[C@@H]([C@@H](C)O)C(=O)N1)[C@@H](C)O)C(=O)N1CCC[C@H]1C(=O)N[C@@H](CO)C(=O)N[C@@H](CO)C(=O)N[C@H](C(=O)N[C@@H](CC(N)=O)C(=O)N[C@H](C(=O)NCC(=O)N1CCC[C@H]1C(=O)N[C@@H](CCC(=O)O)C(=O)N[C@H](C(=O)N[C@@H](Cc1ccc(O)cc1)C(N)=O)[C@@H](C)O)C(C)C)[C@@H](C)O
